Data reported in paper PMC7673785.

Target: RIPK3 (UniProt Q9Y572)
Assay: anti-Flag co-IP, Myc blot
Conditions: reference: wild-type Myc-CSNK1G2; sites S211,T215

For “CSNK1G2 (from UniProt P78368) S211A/T215A”, the “binding against the reference” value was “lost”.
